Consider 7 molecules from article PMC4887207, “Viral hijacking of a replicative helicase loader and its implications for helicase loading control and phage replication” (eLife, 2016).

Data set [1] has as its target SeMet-SaDnaI^AAA+ (Staphylococcus aureus) (UniProt Q3ZUA6). The data set can be described thus: crystal structure; ADP•BeF3-bound SaDnaI^AAA+•77ORF104 complex, SeMet SAD, 1.9 Å; complex formed with two-fold excess of 77ORF104.
Data set [2] deals with SaDnaI^AAA+ (residues 136-306) (Staphylococcus aureus) (UniProt Q3ZUA6). Description: fluorescence polarisation; anisotropy-based competition; 20 nM labeled 77ORF104 and 2 µM SaDnaI^AAA+, unlabeled 77ORF104 or mutant titrated; 50 mM HEPES-KOH pH 7.5, 125 mM KCl, 10% glycerol, 5 mM MgCl2, 1 mM DTT; apparent.
The target of data set [3] is SaDnaI^AAA+ (residues 136-306) (UniProt Q3ZUA6). The data set can be described thus: competition-based fluorescence anisotropy assay. To be noted: read at the highest unlabeled competitor concentration (last point, just beyond the 10 µM tick); the competitor displaces N-terminally labeled wild-type …; parent: est. 20; read off a plot. (Fluorescence polarisation rises when a labelled molecule tumbles more slowly, as on binding a larger partner.)

Data set [4] concerns the molecule itself. The data set can be described thus: centrifugal pelleting assay; 90 µM SaDnaI with or without 180 µM 77ORF104, 20 min on ice, 14,000 x g 1 min; 20 mM HEPES-KOH pH 7.5, 100 mM NaCl, 10% glycerol, 5 mM MgCl2, 6 mM ATP; SDS-PAGE of pellet and supernatant.
Data set [5] deals with the molecule itself. Description: SEC; analytical gel filtration, 5/150 GL Superdex 200; 20 mM Tris-HCl pH 8.0, 200 mM NaCl, 5% glycerol, 5 mM MgCl2, 1 mM BME, 10 mM ATP; 7 µM SaDnaC, 14 µM SaDnaI, 14 µM 77ORF013, 30 µM 77ORF104; peak fractions on SDS-PAGE.
For data set [6], the target named is N-terminally labeled, wild-type 77ORF104 (Staphylococcus bacteriophage 77). Description: fluorescence polarisation; fluorescence anisotropy; 20 nM N-terminally AlexaFluor 488-labeled 77ORF104, unlabeled protein titrated in 2-fold steps; 50 mM HEPES-KOH pH 7.5, 125 mM KCl, 10% glycerol, 5 mM MgCl2, 1 mM DTT; single-site fit; apparent.

Molecule phage 77 ORF104 protein displayed a stoichiometry N in data set [1] of 1.

As for “phage 77 ORF104 protein (natural protein)”, the Ki in data set [2] is 1620 nM.

With phage 77 ORF104 protein K39E, the response in data set [3] is 26 mA. With phage 77 ORF104 protein Y17E, the response in data set [3] amounted to 57 mA.

B1: full-length Staphylococcus aureus DnaI (natural protein, UniProt Q3ZUA6 1-306, looked up)
chain: MKQFKSIINTSQDFEKRIEKIKKEVINDPDVKQFLEAHRAELTNAMIDEDLNVLQEYKDQQKHYDGHKFADCPNFVKGHVPELYVDNNRIKIRYLQCPCKIKYDEERFEAELITSHHMQRDTLNAKLKDIYMNHRDRLDVAMAADDICTAITNGEQVKGLYLYGPFGTGKSFILGAIANQLKSKKVRSTIIYLPEFIRTLKGGFKDGSFEKKLHRVREANILMLDDIGAEEVTPWVRDEVIGPLLHYRMVHELPTFFSSNFDYSELEHHLAMTRDGEEKTKAARIIERVKSLSTPYFLSGENFRNN
notes: Staphylococcus aureus helicase loader DnaI, residues 1-306 by the limits of the domain constructs; Residues 136-306 are in PDB 5HE8 and 5HE9; also called SaDnaI; FL SaDnaI; not shown: His6, N-terminal, cleaved; MBP, N-terminal, cleaved
For B1, in data set [4], the binding result is given as “binds”.

B2: SaDnaC replicative helicase (natural protein, Staphylococcus aureus, UniProt Q9AQH7 1-466, looked up)
chain: MDRMYEQNQMPHNNEAEQSVLGSIIIDPELINTTQEVLLPESFYRGAHQHIFRAMMHLNEDNKEIDVVTLMDQLSTEGTLNEAGGPQYLAELSTNVPTTRNVQYYTDIVSKHALKRRLIQTADSIANDGYNDELELDAILSDAERRILELSSSRESDGFKDIRDVLGQVYETAEELDQNSGQTPGIPTGYRDLDQMTAGFNRNDLIILAARPSVGKTAFALNIAQKVATHEDMYTVGIFSLEMGADQLATRMICSSGNVDSNRLRTGTMTEEDWSRFTIAVGKLSRTKIFIDDTPGIRINDLRSKCRRLKQEHGLDMIVIDYLQLIQGSGSRASDNRQQEVSEISRTLKALARELKCPVIALSQLSRGVEQRQDKRPMMSDIRESGSIEQDADIVAFLYRDDYYNRGGDEDDDDDGGFEPQTNDENGEIEIIIAKQRNGPTGTVKLHFMKQYNKFTDIDYAHADMM
notes: Staphylococcus aureus replicative helicase DnaC (a DnaB-family helicase); also called S. aureus DnaC replicative helicase; host helicase; not shown: His6, N-terminal, cleaved; MBP, N-terminal, cleaved
Turning to B2, the “stoichiometry N” value in data set [5] was 2.

B3: SaDnaI^AAA+ (residues 136-306) (domain or fragment)
chain: DRLDVAMAADDICTAITNGEQVKGLYLYGPFGTGKSFILGAIANQLKSKKVRSTIIYLPEFIRTLKGGFKDGSFEKKLHRVREANILMLDDIGAEEVTPWVRDEVIGPLLHYRMVHELPTFFSSNFDYSELEHHLAMTRDGEEKTKAARIIERVKSLSTPYFLSGENFRNN
As for B3, the Kd in data set [6] amounted to 49 nM.

A word on the stoichiometry N: it is a count of units in the complex or per binding partner.
